Reference: paper PMC4994250

Target: human CASKIN2 SAM1-SAM2 tandem (483-634), G537D/K540E double mutant (human) (UniProt Q8WXE0)
Assay: AUC; sedimentation velocity, 300 mM NaCl, 20 mM sodium phosphate pH 7.8, 20 °C, 50,000 rpm; 10 and 34 μM loading, Kd fitted from the 34 μM experiment; monomer-dimer equilibrium (dimer to monomers)

Kd: 99.8 µM
Substance: human CASKIN2 SAM1-SAM2 tandem (483-634), G537D/K540E double mutant (from UniProt Q8WXE0 483-634) (domain or fragment)
